Laboratory results reported in publication PMC13344149, “One-step purification of a bioactive PAK1-derived peptide” (Analytical biochemistry, 2025).

Assays:
[1] = target: the molecule itself; assay: LC-MS; LC-MS of the heat-treated PBD46 sample; major species at 10.23 kDa
[2] = target: T1, Cdc42 labelled with the extrinsic fluorophore sNBD (UniProt P60953 1-191, sNBD fluorophore (site not stated)); assay: other fluorescence titration; Cdc42 labelled with the extrinsic fluorophore sNBD, PBD46 titrated; heat-purified and conventional PBD46 compared; conditions: both partners purified
T1 construct: Cdc42, small GTPase; also called sNBD-labeled Cdc42
T1 sequence (P60953 whole entry): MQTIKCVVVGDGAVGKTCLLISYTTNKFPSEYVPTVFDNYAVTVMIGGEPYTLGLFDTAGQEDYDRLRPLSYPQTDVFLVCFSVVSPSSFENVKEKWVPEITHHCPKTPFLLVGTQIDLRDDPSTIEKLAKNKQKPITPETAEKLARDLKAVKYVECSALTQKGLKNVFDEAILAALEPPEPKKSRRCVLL

Kd [2]: ~83 nM
B1: PBD46, 46-residue peptide from PAK1 (PAK1 CRIB domain, residues 67-112) (peptide, UniProt Q13153 67-112, looked up)
chain: KKEKERPEISLPSDFEHTIHVGFDAVTGEFTGMPEQWARLLQTSNI
notes: The heat-purified and the conventionally purified sample are the same construct from the same host; also called PAK1-derived peptide; heat-purified PBD46; source: E. coli, as GST-PBD46
stoichiometry N [1]: 2
